We go through six compounds from paper PMC8558179, “The C-terminal peptide of CCL21 drastically augments CCL21 activity through the dendritic cell lymph node homing receptor CCR7 by interaction with the receptor N-terminus” (Cellular and Molecular Life Sciences: CMLS, 2021).

Changes are numbered by the printed parent chain.

Test [1] deals with CCR7. The conditions noted are these: allosteric antagonist, cytosolic site; cited from earlier work. The source says: In the absence of peptide, CCL19 and CCL21 contact CCR7 in different manners. The interaction of CCL21 depends on residues in the top of TM-3, -4 and -5 that are not important for CCL19 interaction with CCR7. The binding of these two chemokines induce different structural changes in CCR7 to disrupt old and create new hydrogen bonds. CCL21 binding to CCR7 is believed to involve movements within the majority of helical domains (TM2, -3, -4, -5, -6, and -7), whereas the changes induced by CCL19 are restricted to regions of TM3, -5, and -6 [37]. The conformational changes in CCR7 ind ...

Test [2] deals with human moDCs naturally expressing CCR7. Kind of test: 3D chemotaxis, time-lapse recording of human moDCs in Collagen I (chemotactic index). The format is cell-based. The note with it: human moDCs; for boosting of CCL21-induced DC chemotaxis: 10 nM CCL21, peptide 10 µM (0.1–10 µM in the dose series). How it is done:
Buffy coats were obtained from Rigshospitalet Copenhagen, as anonymous material, with written informed consent from the donors. The local ethics committee at Faculty of Health and Medical Sciences at the University of Copenhagen (Research Ethics Committee for Sund and Science, University of Copenhagen) found the project exempt from approval. DCs were prepared from human peripheral blood mononuclear cells (PBMC) isolated from buffy coats by centrifugation on a Lymphoprep gradient as previously described. Briefly, monocytes were isolated by plastic adherence of PBMC. Adhered monocytes were subsequently cultured and differentiated into immature DCs by incubation with IL-4 (250 U/ml) and GM-CSF (1000 U/ml) for 6 days, followed by activation into mature DCs by incubation with IL-6 (1000 U/ml), IL-1β (1000 U/ml), TNF-α (1000 U/ml), and PGE2 (1 µg/ml) for an additional 2 days in the same medium.
(§1) Human DCs were cultured in X-vivo 15 medium with 2% human AB serum and glutamine. CHO-K1 pgsB-618 ATCC® CRL2241™ [24] and CHO-K1 cells were grown in RPMI with 10% FBS and Penicillin/Streptomycin. HS^−/− (CHO EXTL 2/3 −/−), CS^−/− (CSGALNACT 1/2^−/− CHSY1^−/−), 5xKO (GalNAc-T1, 2, 4, 7 and 10 −/−) and WT CHO suspension cells were grown in suspension in 1:1 of EX-Cell CD CHO fusion media and Balanced CD CHO growth A medium supplemented with 2% glutamine and Penicillin/Streptomycin. Cells were kept in a humidified incubator at 37 °C, 5% CO2.
Chemotaxis assays were conducted as previously described. Briefly, mature human moDCs were left to acclimatize in medium for 30 min at room temperature (RT) upon defrosting, before assay start. DCs were seeded in Bovine Collagen I mixture prepared by mixing 10 µl Na2HCO3 (7.5%), 20 µl MEM (10×), 150 µl PureCol and 90 µl DCs dissolved in X-vivo 15 medium (2 × 10^6 cells/ml). After incubation for 45 min in a humidified incubator at 37 °C (5% CO2), the source and sink reservoirs were filled according to the manufacturer’s instructions and chemotaxis was tracked in a time-lapse microscope with a humidified temperature controlled stage incubator for 12 h at a 2 min interval. Cell migration (approximately 20–40 cells per viewing field) was tracked using a commercial tracking program (Autozell) and subsequently analyzed to get a population-based chemotactic index (CI) value (MATLAB). CI is a measure of net translocation distance to the source relative to total distance traveled and was thus calculated as the ratio of the distance traveled in the direction of the gradient over the total distance traveled and therefore is a conservative measure of the directedness of cell migration.

The target of test [3] is T1, human CCR7 (Homo sapiens, UniProt P32248).
T1 construct: CCR7 contains a 24-residue long signal peptide cleaved of from the mature protein; expressed in transfected cells; host or cells: CHO cells (CHO-K1, CHO suspension WT, GAG-deficient and 5xKO GalNAc-T knockout lines), transient transfection
T1 sequence (P32248 25-378): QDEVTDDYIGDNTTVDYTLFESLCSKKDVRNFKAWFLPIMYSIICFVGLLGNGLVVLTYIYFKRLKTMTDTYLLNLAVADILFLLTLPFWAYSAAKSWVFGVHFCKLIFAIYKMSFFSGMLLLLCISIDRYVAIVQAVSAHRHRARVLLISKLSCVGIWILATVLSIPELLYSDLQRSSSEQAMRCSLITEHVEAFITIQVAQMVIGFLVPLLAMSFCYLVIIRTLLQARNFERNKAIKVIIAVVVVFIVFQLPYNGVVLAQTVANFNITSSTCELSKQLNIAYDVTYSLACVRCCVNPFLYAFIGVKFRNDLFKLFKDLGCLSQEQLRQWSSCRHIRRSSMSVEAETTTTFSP
The test can be described thus: Gαi signaling, BRET-based cAMP (CAMYEL) assay at CCR7 in CHO cells. Format: cell-based. The note with it: for boosting of CCL21-induced Gαi signaling: CCL21 + 10 µM peptide, BRET cAMP, n = 3–8. How it is done:
as §1
(§2) For cAMP assays, adherent CHO cells were transfected using lipofectamine while suspension cells were transfected using the FectoPro method. Cells were seeded in a 6-well plate, either 500,000 (adherent cells) or 200,000 (suspension cells) cells/well. The next day the cells were transiently transfected with vectors encoding the human CCR7 and CAMYEL sensor (cAMP sensor using YFP-Epac-RLuc) in a 1:5 ratio using lipofectamine (6 µl/well) or FectoPro (4 µl/well). Lipofectamine transfections were terminated by changing to 2 ml fresh cultivation medium after 5 h, while Fectopro transfection was terminated after 3 h by adding 2.5 ml fresh cultivation medium and 2 µl FectoPro Boost reagent per well. The cells were incubated under standard cultivation conditions overnight. For β-arrestin recruitment assays, cells were transfected with CCR7 and vectors expressing a Renilla luciferase arrestin3 fusion protein and membrane-SH3-citrine protein. The cells were then resuspended in PBS w/glucose and seeded in 96-well white iso plates (~ 25,000 cells/well). Coelenterazine (bioluminescence substrate) was added to a final conc. of 5 µM. After 10 min, cells were stimulated with varying ligand concentrations for a total of 40 min. Forskolin was added to each well 5 min after ligand addition to reach a final conc. of 5 µM. The plates were kept in the dark at all times. Emission signal from Rluc and eYFP was measured using the Envision machine at 530 and 480 nm and the BRET signal determined as the ratio between (eYFP/Rluc).

Test [4] addresses T1, human CCR7. The test can be described thus: β-arrestin recruitment, BRET-based assay at CCR7. The format is cell-based. The note with it: no peptide, n = 4. Here is the method:
as §2

Test [5] concerns the target T2, CCR7^−O (CCR7 T37/38/42A) (Homo sapiens, UniProt P32248, T37A/T38A/T42A).
T2 construct: CCR7 contains a 24-residue long signal peptide cleaved of from the mature protein; expressed in transfected cells; host or cells: CHO cells, transient transfection
T2 sequence (P32248 25-378 T37A/T38A/T42A): T1 sequence (P32248 25-378) with T13A, T14A, T18A
The test can be described thus: Gαi signaling, BRET cAMP assay, CCR7 lacking N-terminal O-glycosylation sites. The note with it: no peptide, CCR7^−O vs WT CCR7. The format is cell-based. How it is done:
O-glycosylation deficient CCR7 was generated from WT through Quick change PCR using the following primers: […]
as §2
On the technique in general: In BRET a luciferase serves as donor, and the signal depends on an acceptor being close.

`Cc1ccc(C(NC2=NS(=O)(=O)N=C2Nc2ccc(C)c(C(=O)N(C)C)c2O)C(C)(C)C)o1` (centres unmarked) [Cmp2105]: in test [1], the “competition with CCL19 binding to CCR7” value was “outcompetes CCL19 binding to CCR7”.

Regarding “CCL19: endogenous chemokine, CCR7 ligand, from R&D Systems”, in test [2] (10 nM chemokine, no peptide), the “chemotaxis towards chemokine alone” value is “strong migratory signal”. Moreover, the “chemokine signaling in O-glycosylation-deficient 5xKO cells” value in test [3] (CHO 5xKO vs WT, CCL21 alone, CCL19 in absence or presence of C21TP) is “only slightly impaired”. The “pEC50, Gαi signaling, chemokine alone” value in test [3] (no peptide, CHO cells, forskolin 5 µM, n = 4) worked out at 7.94. Further, the “pEC50, β-arrestin recruitment, chemokine alone” value in test [4] was determined as 7.11. For the same compound, the “chemokine activity on its own at CCR7^−O” value in test [5] was “without affecting basal CCR7 activation via CCL19 and CCL21”.

Turning to “TP81-97: C-terminally truncated version of TP81-111 (RKDRGASKTGKKGKGSK; UniProt O00585 104-120, looked up, fragment)”, the “boosting of CCL21-induced DC chemotaxis” value in test [2] was “blunted chemotaxis boosting ability”. For the same compound, the “boosting of CCL21-induced Gαi signaling” value in test [3] (CHO cells) is listed as “reduced signaling via cAMP”.

Consider “TP81-102: C-terminally truncated version of TP81-111 (RKDRGASKTGKKGKGSKGCKRT; UniProt O00585 104-125, looked up, fragment)”, for which the “boosting of CCL21-induced DC chemotaxis” value in test [2] was “conserved boosting effects”. Also, the “boosting of CCL21-induced Gαi signaling” value in test [3] (CHO cells) is “conserved boosting effects”.

“TP81-111: naturally occurring peptide generated upon plasmin cleavage of CCL21 (RKDRGASKTGKKGKGSKGCKRTERSQTPKGP; UniProt O00585 104-134, looked up, fragment)”: in test [2], the “boosting of CCL21-induced DC chemotaxis” value is “at least to the same extent as TP71-111”. The “boosting of CCL21-induced Gαi signaling” value in test [3] (CHO cells) was “boosted even more”.

For the compound “TP91-111: C21TP reduced N-terminally by 20 aa (KKGKGSKGCKRTERSQTPKGP; UniProt O00585 114-134, looked up, fragment)”, the “boosting of CCL21-induced DC chemotaxis” value in test [2] is recorded as “retaining boosting ability”. The “boosting of CCL21-induced Gαi signaling” value in test [3] (CHO cells) is “retaining boosting ability”.
